# Data as given in paper PMC5397179 (2017).
# B1: Biotinylated full length PcrA (Geobacillus stearothermophilus), wild type [modified: biotin; biotin] [Geobacillus stearothermophilus] / DNA pol I, Bacillus subtilis [B. subtilis 168 (endogenous in the cell extract)] (parent complex)
# chain 1: MNFLSEQLLAHLNKEQQEAVRTTEGPLLIMAGAGSGKTRVLTHRIAYLMAEKHVAPWNILAITFTNKAAREMRERVQSLLGGAAEDVWISTFHSMCVRILRRDIDRIGINRNFSILDPTDQLSVMKTILKEKNIDPKKFEPRTILGTISAAKNELLPPEQFAKRASTYYEKVVSDVYQEYQQRLLRNHSLDFDDLIMTTIQLFDRVPDVLHYYQYKFQYIHIDEYQDTNRAQYTLVKKLAERFQNICAVGDADQSIYRWRGADIQNILSFERDYPNAKVILLEQNYRSTKRILQAANEVIEHNVNRKPKRIWTENPEGKPILYYEAMNEADEAQFVAGRIREAVERGERRYRDFAVLYRTNAQSRVMEEMLLKANIPYQIVGGLKFYDRKEIKDILAYLRVIANPDDDLSLLRIINVPKRGIGASTIDKLVRYAADHELSLFEALGELEMIGLGAKAAGALAAFRSQLEQWTQLQEYVSVTELVEEVLDKSGYREMLKAERTIEAQSRLENLDEFLSVTKHFENVSDDKSLIAFLTDLALISDLDELDGTEQAAEGDAVMLMTLHAAKGLEFPVVFLIGMEEGIFPHNRSLEDDDEMEEERRLAYVGITRAEEELVLTSAQMRTLFGNIQMDPPSRFLNEIPAHLLETASRRQAGASRPAVSRPQASGAVGSWKVGDRANHRKWGIGTVVSVRGGGDDQELDIAFPSPIGIKRLLAKFAPIEKV
# chain 2: MTERKKLVLVDGNSLAYRAFFALPLLSNDKGVHTNAVYGFAMILMKMLEDEKPTHMLVAFDAGKTTFRHGTFKEYKGGRQKTPPELSEQMPFIRELLDAYQISRYELEQYEADDIIGTLAKSAEKDGFEVKVFSGDKDLTQLATDKTTVAITRKGITDVEFYTPEHVKEKYGLTPEQIIDMKGLMGDSSDNIPGVPGVGEKTAIKLLKQFDSVEKLLESIDEVSGKKLKEKLEEFKDQALMSKELATIMTDAPIEVSVSGLEYQGFNREQVIAIFKDLGFNTLLERLGEDSAEAEQDQSLEDINVKTVTDVTSDILVSPSAFVVEQIGDNYHEEPILGFSIVNETGAYFIPKDIAVESEVFKEWVENDEQKKWVFDSKRAVVALRWQGIELKGAEFDTLLAAYIINPGNSYDDVASVAKDYGLHIVSSDESVYGKGAKRAVPSEDVLSEHLGRKALAIQSLREKLVQELENNDQLELFEELEMPLALILGEMESTGVKVDVDRLKRMGEELGAKLKEYEEKIHEIAGEPFNINSPKQLGVILFEKIGLPVVKKTKTGYSTSADVLEKLADKHDIVDYILQYRQIGKLQSTYIEGLLKVTRPDSHKVHTRFNQALTQTGRLSSTDPNLQNIPIRLEEGRKIRQAFVPSEKDWLIFAADYSQIELRVLAHISKDENLIEAFTNDMDIHTKTAMDVFHVAKDEVTSAMRRQAKAVNFGIVYGISDYGLSQNLGITRKEAGAFIDRYLESFQGVKAYMEDSVQEAKQKGYVTTLMHRRRYIPELTSRNFNIRSFAERTAMNTPIQGSAADIIKKAMIDMAAKLKEKQLKARLLLQVHDELIFEAPKEEIEILEKLVPEVMEHALALDVPLKVDFASGPSWYDAK
# B2: Biotinylated full length PcrA (Geobacillus stearothermophilus), wild type [modified: biotin; biotin] [Geobacillus stearothermophilus] / UvrB, Bacillus subtilis [B. subtilis 168 (endogenous in the cell extract)] (parent complex)
# chain 1: B1 chain 1
# chain 2: MKDRFELVSKYQPQGDQPKAIEKLVKGIQEGKKHQTLLGATGTGKTFTVSNLIKEVNKPTLVIAHNKTLAGQLYSEFKEFFPNNAVEYFVSYYDYYQPEAYVPQTDTFIEKDASINDEIDKLRHSATSALFERRDVIIIASVSCIYGLGSPEEYREMVVSLRTEMEIERNELLRKLVDIQYARNDIDFQRGTFRVRGDVVEIFPASRDEHCVRVEFFGDEIERIREVDALTGEILGDRDHVAIFPASHFVTRAEKMEKAIQNIEKELEEQLKVMHENGKLLEAQRLEQRTRYDLEMMREMGFCSGIENYSRHLTLRPPGSTPYTLLDYFPDDFMIVVDESHVTIPQVRGMFNGDQARKQVLVDHGFRLPSALDNRPLRFEEFEKHMHNIVYVSATPGPYEIEHTDEMVEQIIRPTGLLDPLIDVRPIEGQIDDLIGEIQARIERNERVLVTTLTKKMSEDLTDYLKEIGIKVNYLHSEIKTLERIEIIRDLRLGKYDVLVGINLLREGLDIPEVSLVAILDADKEGFLRSERSLIQTIGRAARNAEGRVIMYADKITKSMEIAINETKRRREQQERFNEEHGITPKTINKEIRDVIRATVAAEDKAEYKTKAAPKLSKMTKKERQKVVEQMEHEMKEAAKALDFERAAELRDLLLELKAEG
# B3: Biotinylated full length PcrA (Geobacillus stearothermophilus), wild type [modified: biotin; biotin] [Geobacillus stearothermophilus] / LigA (NAD+-dependent DNA ligase), Bacillus subtilis [B. subtilis 168 (endogenous in the cell extract)] (parent complex)
# chain 1: B1 chain 1
# chain 2: MDKETAKQRAEELRRTINKYSYEYYTLDEPSVPDAEYDRLMQELIAIEEEHPDLRTPDSPTQRVGGAVLEAFQKVTHGTPMLSLGNAFNADDLRDFDRRVRQSVGDDVAYNVELKIDGLAVSLRYEDGYFVRGATRGDGTTGEDITENLKTIRNIPLKMNRELSIEVRGEAYMPKRSFEALNEERIKNEEEPFANPRNAAAGSLRQLDPKIAAKRNLDIFVYSIAELDEMGVETQSQGLDFLDELGFKTNQERKKCGSIEEVITLIDELQAKRADLPYEIDGIVIKVDSLDQQEELGFTAKSPRWAIAYKFPAEEVVTKLLDIELNVGRTGVITPTAILEPVKVAGTTVSRASLHNEDLIKEKDIRILDKVVVKKAGDIIPEVVNVLVDQRTGEEKEFSMPTECPECGSELVRIEGEVALRCINPECPAQIREGLIHFVSRNAMNIDGLGERVITQLFEENLVRNVADLYKLTKERVIQLERMGEKSTENLISSIQKSKENSLERLLFGLGIRFIGSKAAKTLAMHFESLENLKKASKEELLAVDEIGEKMADAVITYFHKEEMLELLNELQELGVNTLYKGPKKVKAEDSDSYFAGKTIVLTGKLEELSRNEAKAQIEALGGKLTGSVSKNTDLVIAGEAAGSKLTKAQELNIEVWNEEQLMGELKK
# Variants of: B1
# Assay: pulldown quantified by mass spectrometry; parent: 97; read off a plot
row,screen value,Variant
1,~70,chain 1 L714A
2,~49,chain 1 K712A

# Variants of: B2
# Assay: pulldown quantified by mass spectrometry; parent: 12; read off a plot
row,screen value,Variant
1,~0,chain 1 K712A
2,~2.3,chain 1 L714A

# Variants of: B3
# Assay: pulldown quantified by mass spectrometry; parent: 26; read off a plot
row,screen value,Variant
1,~25,chain 1 L714A
2,~21,chain 1 K712A
